Results reported in the DeepSol protein solubility set.

test: soluble on expression in E. coli; label from the status in PepcDB or PDB records

Row | Sequence | soluble on expression in E. coli
1 | VTYEEEAVPAPVRGRLEVLSDLLYVASPDRAMVFTRTKAETEEIAQGLLRLGHPAQALHGDMSQGERERVMGAFRQGEVRVLVATDVAARGLDIPQVDLVVHYRMPDRAEAYQHRSGRTGRAGRGGRVVLLYGPRERRDVEALERAVGRRFKRVNPPTPEEVLEAKWRHLLARLARVPEKDYRLYQDFAGRLFAEGRVEVVAALLALLLGGAPAERSLLTGEEGWRTYKATGPRLSLPRLVALLKGQGLEVGKVAEAEGGFYVDLRPEARPEVAGLRLEPARRVEGLLEIPSRTRRPARA | soluble
2 | MNEIKLKYDTQVSVVHYESLDSRSFKSFSMPKWSKLVNKLSVPIEANYKYARGVAVYGDIKDNTNDHGEIIKKHRNDKNVIYRNVIVLDYDEINDVKQLHDAISSVLSSVAWYWHTSFSHTTEQARIRLYIPLNERISADDYRKYTKVLANKIGHKVDEGSYQPSRCFALPVIQKGHIFIKRVNDCPIMDVDMLEQWSKEYKQSNGSPNIKGYTRRDSAYWRDIAFGVSEGERNSTLASITGYLLRRYVDPNLVYGLVSAWASVCKPPINQSEVNNTFKSILKKDSKNS | not soluble
3 | MVYPIRLYGDPVLRRKARPVEDFSGIKRLAEDMLETMFEAKGVGLAAPQIGLSQRLFVAVEYADEPEGEEERPLRELVRRVYVVANPVITYREGLVEGTEGCLSLPGLYSEEVPRAERIRVEYQDEEGRGRVLELEGYMARVFQHEIDHLDGILFFERLPKPKREAFLEANRAELVRFQKEARALLKELSQG | soluble
4 | GAAEKTVVNISKVDGMPWFNRMGEGVVQAGKEFNLNASQVGPSSTDAPQQVKIIEDLIARKVDAITIVPNDANVLEPVFKKARDAGIVVLTNESPGQPSANWDVEIIDNEKFAAEYVEHMAKRMGGKGGYVIYVGSLTVPQHNLWADLLVKYQKEHYPDMHEVTRRMPVAESVDDSRRTTLDLMKTYPDLKAVVSFGSNGPIGAGRAVKEKRAKNKVAVYGMMIPSQAASLIKSGDITEGITYDPATAGYALAAVASTLLNGKTIEPGFELKELGKAEVDSDKHIIRFHKVLLVNKDNIDSLY | soluble
5 | MSSIDPATFAAQFAQIEIQPFKQRYQLQTNTYQSQLSALGKVESAMREFRTALNEMNSSTNSIIKNSTSISQEGYFTANADAKALSGSYQIFVEQVATSHQ | not soluble
6 | MANRLRTGIDVLDRKLDGGIPAGSIVVLSAQPASQAELFLYELTATRGTLWLSLDRTAESVIASIEQTPANTGDPTVRHISGEAPLDNAGKLVSALPETSNLIVDPLDVLEAQEPHSRFRAFMNDLQNHIVNTGSLAIVHCLDGRDVPPLRDTTEHFADVVFQLNTTTNGDEVENRLAIPKFRGGRAPTDIIKLNLVEEVSIDTSRDIALEHHHHHH | not soluble
7 | MGSSHHHHHHSSGRENLYFQGHMVIIDNKHYLFIQKLGEGGFSYVDLVEGLHDGHFYALKRILCHEQQDREEAQREADMHRLFNHPNILRLVAYCLRERGAKHEAWLLLPFFKRGTLWNEIERLKDKGNFLTEDQILWLLLGICRGLEAIHAKGYAHRDLKPTNILLGDEGQPVLMDLGSMNQACIHVEGSRQALTLQDWAAQRCTISYRAPELFSVQSHCVIDERTDVWSLGCVLYAMMFGEGPYDMVFQKGDSVALAVQNQLSIPQSPRHSSALWQLLNSMMTVDPHQRPHIPLLLSQLEALQPPAPGQHTTQIL | soluble
8 | MFRRIPLGRFLTRKIHNQTNGLIVPTTNVQKQQKRQILFKMGNETPARVVGYYVVFPVIPEETVENNCFMYNIAKNEDWPKLATAEPRELYEGTVRMLMDYGATVMEHMEHLATLPAEERKFENVVEPLLTEEYEVNFAFQTLVLKMLTDWPDCNRKLFDADLHHIKIMCARDQMEKLTNKDFQDAIKQLYEAKDGLSEWQSRLLEWYLLEIKASGLDKHDDKTRKVLGSWSKFVDEYRSKYITGVMSTNDQQTFVVTDQKVIKDAPPHVLQKLAVDEQNWESGPWRGRMTPHTIYPFMQYCGDRQLRATAWEKWTSKAGFDHDFYNNSINIEELRHNNEGLAKTLGYSSVAEHRLANKMAASPETVRGFINALQRRIRPVVIDRMESWSAWAGRCELITGELQAYDMPYVCRKEAEHHYEFFFQLKSSNFSFFRVNPLDLMNHFPFWPTFQNIMGVIGHIFNLEFKDITDKGLEKAHADVRIYSVGDKFSGQHYGRLYIDPYDRQNKRGGWNVMLARPESKERGLDKIVYFIGSAIAPTSNGPSLLHHQQLQQLLFHFGRSVQLLLSQSPYRDISIPWSPFYASDWDAADMFPTFLQMFVTKPNLLATISSPHQITKQSLTEEHANSVALTISRASLWETYRTLFWSDFDLSIYEMEDRKQKFWLDMYKQMYEEYFPFKRAKNDYQPCSFTPIFALQPHMSMYYRKLWAEMLALDIHETFDEEDNEVQTGERLKTTILNRGSGDVAKELFKRFQGRNPSVGAICDHYAPPMAIQDEMEMSENQRR | not soluble
9 | MSVIDANALDTAAFVARYRALFEHSPWVVERAARRRPFDDVFGGLMQVVYDASPDDQLALIRAHPELAGKAAIDRTLTAASAAEQASAGLDRLDEDEFHRFHALNHAYRQRFGFPFVICVRLQDKAGILAELQRRLDAPRNDEIATALAEIGKIVHLRLEALPLEHHHHHH | soluble
10 | MGHHHHHHGGHMSLSPVLTQHVSQPITLDEQTQKMKRHLLQDIRRSAYVYRVDCGGCNACEIEIFAAITPVFDAERFGIKVVSSPRHADILLFTGAVTRAMRMPALRAYESAPDHKICVSYGACGVGGGIFHDLYSVWGGSDTIVPIDVWIPGCPPTPAATIHGFAVALGLLQQKIHAVDYRDPTGVTMQPLWPQIPPSQRIAIEREARRLAGYRQGREICDRLLRHLSDDPTGNRVNTWLRDADDPRLNSIVQQLFRVLRGLHDEGGS | soluble
11 | GALRSLVLIGHGSHHHGESARATQQVAEALRGRGLAGHLPYDEVLEGYWQQEPGLRQVLRTVAYSDVTVVPVFLSEGYVTETVLPRELGLGHQGPVPTGGVVRVLGGRRVRYTRPLGAHPGMADAIAAQARDTLPEGTDPADVTLLLLAARPGNAALETHAQALRERGQFAGVEVVLESREALTPESHAASAVPLSEWPSRVEAGQAVLVPFLTHLGKHAAERLQQALAQAAERFPQAPPLHVGGPVGEHPAVAEVVLALAAEGREDERGGDIDQAHAEAWAALRHLAERGGRLGEVLLTPYGGLFELRHTLDEGRATLDLQTVVTPEGLRDLTARDEAGRWRPIRTWRTLPRGWRAVLSPADLRLGLELLYPAVIEESYAHEHRRLHWTPWMSTARRQTGTLARVQRATPDQVDTVAAQVCASCLRTRLWAGHTLGQTIFSGVPGGLPCAEACTVLLAAVRDEVGREAMGSGD | soluble
12 | MNINILLSTYNGERFLAEQIQSIQRQTVNDWTLLIRDDGSTDGTQDIIRTFVKEDKRIQWINEGQTENLGVIKNFYTLLKHQKADVYFFSDQDDIWLDNKLEVTLLEAQKHEMTAPLLVYTDLKVVTQHLAVCHDSMIKTQSGHANTSLLQELTENTVTGGTMMITHALAEEWTTCDGLLMHDWYLALLASAIGKLVYLDIPTELYRQHDANVLGARTWSKRMKNWLTPHHLVNKYWWLITSSQKQAQLLLDLPLKPNDHELVTAYVSLLDMPFTKRLATLKRYGFRKNRIFHTFIFRSLVVTLFGYRRK | not soluble
13 | MSLTAHRIGFLVWPGTKAMTLALAEEALRVAQRVHPEVVYELSFLQAELAEPAAVAGGWQLPGEPWTGRLEGLQKLFLLADEPPAAVAPALGSALKQLVRAGCSIGGLSAGVYPLAQLGLLDGYRAAVHWRWQDDFAERFPKVIATSHLFDWDRDRLTACGGMSVLDLLLAVLSRDHGAELAGAVSEELVVERIREGGERQRIPLQNRLGSSHPKLTQAVLLMEANIEEPLTTDEIAQHVCVSRRQLERIFKQYLNRVPSQYYLELRLNKARQMLMQTSKSIIQIGLSCGFSSGPHFSSAYRNFFGATPREDRNQRRSSSPFELSPVPAKGIITITTDPNSSSVDKLAAALEHHHHHH | soluble
